Test results: patent US8030048B2, “Enantioselective epoxide hydlrolase and method for preparing and enantiopure epoxide using the same” (Korea Ocean Research and Development Institute, priority 2005, dated 2011)

Tests used:
[1] = target: T1, Erythrobacter litoralis HTCC2594 epoxide hydrolase rEEH1 (EEH1), SEQ ID NO: 13 (Erythrobacter litoralis, UniProt Q2NAV3); assay: Kinetic parameters of purified rEEH1 by GC analysis with (R)- or (S)-styrene oxide; format: biochemical; conditions: 100 mM potassium phosphate pH 8.0, 30° C.
T1 construct: microsomal-EH-like
T1 sequence (Q2NAV3 1-373): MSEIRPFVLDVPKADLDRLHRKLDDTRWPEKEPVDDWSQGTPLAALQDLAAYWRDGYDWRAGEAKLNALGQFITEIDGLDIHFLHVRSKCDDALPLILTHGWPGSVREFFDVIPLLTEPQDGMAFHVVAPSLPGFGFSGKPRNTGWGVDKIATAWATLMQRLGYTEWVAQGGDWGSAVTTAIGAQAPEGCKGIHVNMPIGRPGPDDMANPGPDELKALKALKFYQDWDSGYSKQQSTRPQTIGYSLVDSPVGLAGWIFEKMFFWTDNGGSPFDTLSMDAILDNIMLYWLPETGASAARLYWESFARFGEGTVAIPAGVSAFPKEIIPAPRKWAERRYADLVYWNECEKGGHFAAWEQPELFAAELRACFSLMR
Protocol: (§1) Kinetic parameters of the rEEH1, rEEH2, rEEH3, sEEH, nEEH, and rEEH were determined by a GC analysis using (R)- or (S)- styrene oxide substrate. 100 ul of purified EHases were mixed with various concentrations of (R)- or (S)- styrene oxide in a 10 ml tube containing 1 ml of potassium phosphate buffer (100 mM, pH 8.0), and shake-incubated at 200 rpm and a temperature of 30° C. The extraction mixtures were extracted with 2 ml of hexane, and enantiomeric excess [ee; ee=100×(S−R)/(S+R)] toward enantiopure styrene oxide was analyzed with a chiraldex gamma-cyclodextrin trifluoroacetyl(G-TA) capillary GC column. Wherein, the FIG. 8 was diagramed with GC analysis for the hydrolyzing activities of enantioselective EHases (rEEH1, rEEH2, and rEEH3) toward racemic styrene oxide.
(§2) Kinetic parameters were estimated by non-linear regression analysis using a Sigma Plot program, and various substrates as depicted in FIG. 1 were also tested for the enantioselective hydrolyzing activity by rEEH1, rEEH2, rEEH3, sEEH, nEEH, and rEEH.

[2] = Effects of pH and temperature on the EHase activity of rEEH1, rEEH2 and rEEH3; format: biochemical
Protocol: The effect of pH on the EHase activity was measured with 50 mM sodium acetate-acetic acid buffer (pH 4.0 and 6.0), 50 mM MES buffer (pH 6.0 to 7.0), 50 mM Phosphate buffer (pH 7.0 to 9.0), and 50 mM Glycine buffer (pH 9.0 and 10.0), and the optimum reaction temperature on the EHase activity was measured over a temperature of range from 10 to 70° C. at pH 7.5.

[3] = Kinetic parameters of purified EHases by GC analysis, (S)-styrene oxide; format: biochemical; conditions: (S)-enantiomer of styrene oxide, Table 5
Protocol: as §1, §2

[4] = Kinetic parameters of purified EHases by GC analysis, (R)-styrene oxide; format: biochemical; conditions: (R)-enantiomer of styrene oxide, Table 5
Protocol: as §1, §2

[5] = Enantioselective hydrolyzing activity of purified EHases toward SO; format: biochemical
Protocol: as §1, §2

[6] = Enantioselective hydrolyzing activity of purified EHases toward GPE; format: biochemical
Protocol: as §1, §2

[7] = Enantioselective hydrolyzing activity of purified EHases toward EX; format: biochemical
Protocol: as §1, §2

[8] = Enantioselective hydrolyzing activity of purified EHases toward EB; format: biochemical
Protocol: as §1, §2

[9] = Enantioselective hydrolyzing activity of purified EHases toward EF; format: biochemical
Protocol: as §1, §2

[10] = Substrate selectivity of rEEH1, rEEH2 and rEEH3 toward various epoxide substrates; format: biochemical; conditions: purified enzyme
Protocol: Also, the substrate selectivity of rEEH1, rEEH2 and rEEH3 toward various epoxide substrates depicted in FIG. 1 was same to Table 4.
as §2

[11] = substrate: c1ccc([C@@H]2CO2)cc1; assay: Kinetic parameters of purified rEEH1 by GC analysis with (R)- or (S)-styrene oxide; format: biochemical, Erythrobacter litoralis HTCC2594; conditions: other: 100 mM potassium phosphate pH 8.0, 30° C.
Protocol: as §1, §2

[12] = substrate: c1ccc([C@H]2CO2)cc1; assay: as above; format: biochemical, Erythrobacter litoralis HTCC2594; conditions: other: 100 mM potassium phosphate pH 8.0, 30° C.
Protocol: as §1, §2

Molecule `c1ccc([C@@H]2CO2)cc1` [(R)-styrene oxide] has a Vmax [1] of 2.3 µmol/min.

For `c1ccc([C@H]2CO2)cc1` [(S)-styrene oxide], the Vmax [1] was 1.18 µmol/min.

B1: Erythrobacter litoralis HTCC2594 epoxide hydrolase rEEH1 (EEH1), SEQ ID NO: 13 (Erythrobacter litoralis HTCC2594) (protein)
chain: T1 sequence (Q2NAV3 1-373)
notes: microsomal-EH-like
For B1, the “optimum temperature (maximum hydrolysis rate)” value ([2]; 10 to 70° C. at pH 7.5) was 50 °C, the “optimum pH” value ([2]; activity toward styrene oxide, pH 4.0 to 10.0) was 6.5 and the “kcat Km” value [3] was 10600 M⁻¹ s⁻¹. For the same molecule, the “kcat Km” value [4] was 16300 M⁻¹ s⁻¹, the “Hydrolysis rate SO (R)” value ([5]; (R)-enantiomer) was 28.0 (×10^−2) mg/min and the “Hydrolysis rate SO (S)” value ([5]; (S)-enantiomer) was 9.00 (×10^−2) mg/min. For the same molecule, the “enantiomer preference in hydrolysis of styrene oxide, in words” value ([5]; purified enzyme) was “(R)-styrene oxide was hydrolyzed faster than (S)-styrene oxide”, the “Hydrolysis rate GPE (R)” value ([6]; (R)-enantiomer) was 11.0 (×10^−2) mg/min and the “Hydrolysis rate GPE (S)” value ([6]; (S)-enantiomer) was 20.0 (×10^−2) mg/min. The “Hydrolysis rate EX (R)” value ([7]; (R)-enantiomer) was 7.00 (×10^−2) mg/min, the “Hydrolysis rate EX (S)” value ([7]; (S)-enantiomer) was 8.00 (×10^−2) mg/min and the “Hydrolysis rate EB (R)” value ([8]; (R)-enantiomer) was 15.0 (×10^−2) mg/min. For the same molecule, the “Hydrolysis rate EB (S)” value ([8]; (S)-enantiomer) was 15.0 (×10^−2) mg/min, the “Hydrolysis rate EF (R)” value ([9]; (R)-enantiomer) was 4.00 (×10^−2) mg/min and the “Hydrolysis rate EF (S)” value ([9]; (S)-enantiomer) was 15.0 (×10^−2) mg/min. For the same molecule, the “substrate selectivity, in words” value [10] was “hydrolyzed enantioselectively toward monosubstituted epoxides with bulky ring at C-1 position”, the Km [11] was 2900 µM and the Vmax [11] was 2.3 µmol/min. It also gave a kcat [11] of 49.1 s⁻¹, a Km [12] of 2300 µM and a kcat [12] of 24.5 s⁻¹.
